The labels stand for the following.
B1: toripalimab Fab H.D31A (Fab, V domains shown)
VH: QGQLVQSGAEVKKPGASVKVSCKASGYTFTAYEMHWVRQAPIHGLEWIGVIESETGGTAYNQKFKGRVTITADKSTSTAYMELSSLRSEDTAVYYCAREGITTVATTYYWYFDVWGQGTTVTVSS
VL: DVVMTQSPLSLPVTLGQPASISCRSSQSIVHSNGNTYLEWYLQKPGQSPQLLIYKVSNRFSGVPDRFSGSGSGTDFTLKISRVEAEDVGVYYCFQGSHVPLTFGQGTKLEIK
notes: heavy chain of Sm3 with this change; numbers count from the chain's first residue; as the light chain of Sm3; source: Brevibacillus, culture supernatant (ammonium sulfate precipitate); not shown: 6xHis, C-terminal, kept; 6xHN, C-terminal, kept
B2: toripalimab Fab, wild type (Fab, V domains shown)
VH: B1 VH with A31D
VL: B1 VL
notes: toripalimab Fab heavy chain; toripalimab stands in PDB 6JBT; toripalimab Fab light chain; also called WT; source: Brevibacillus, culture supernatant (ammonium sulfate precipitate); not shown: 6xHis, C-terminal, kept; 6xHN, C-terminal, kept
B3: toripalimab Fab L.H31Y (Fab, V domains shown)
VH: B1 VH with A31D
VL: B1 VL with H31Y
notes: as the heavy chain of Sm3; light chain of Sm3 with this change; numbers count from the chain's first residue; source: Brevibacillus, culture supernatant (ammonium sulfate precipitate); not shown: 6xHis, C-terminal, kept; 6xHN, C-terminal, kept
B4: toripalimab Fab H.I51Y (Fab, V domains shown)
VH: B1 VH with A31D, I51Y
VL: B1 VL
notes: as for B1
B5: toripalimab Fab H.W110A (Fab, V domains shown)
VH: B1 VH with A31D, W110A
VL: B1 VL
notes: as for B1
B6: toripalimab Fab L.L101H (Fab, V domains shown)
VH: B1 VH with A31D
VL: B1 VL with L101H
notes: as for B3
B7: toripalimab Fab H.Y108A (Fab, V domains shown)
VH: B1 VH with A31D, Y108A
VL: B1 VL
notes: as for B1
B8: toripalimab Fab H.H35A (Fab, V domains shown)
VH: B1 VH with A31D, H35A
VL: B1 VL
notes: as for B1
B9: toripalimab Fab H.T103A (Fab, V domains shown)
VH: B1 VH with A31D, T103A
VL: B1 VL
notes: as for B1
B10: toripalimab Fab L.E39A (Fab, V domains shown)
VH: B1 VH with A31D
VL: B1 VL with E39A
notes: as for B3
B11: toripalimab Fab L.H31A (Fab, V domains shown)
VH: B1 VH with A31D
VL: B1 VL with H31A
notes: as for B3
B12: toripalimab Fab H.G100Y (Fab, V domains shown)
VH: B1 VH with A31D, G100Y
VL: B1 VL
notes: as for B1
B13: toripalimab Fab H.T102Y (Fab, V domains shown)
VH: B1 VH with A31D, T102Y
VL: B1 VL
notes: as for B1
B14: toripalimab Fab H.E52A (Fab, V domains shown)
VH: B1 VH with A31D, E52A
VL: B1 VL
notes: as for B1
B15: toripalimab Fab H.T102A (Fab, V domains shown)
VH: B1 VH with A31D, T102A
VL: B1 VL
notes: as for B1
B16: toripalimab Fab L.G96A (Fab, V domains shown)
VH: B1 VH with A31D
VL: B1 VL with G96A
notes: as for B3
B17: toripalimab Fab H.I101A (Fab, V domains shown)
VH: B1 VH with A31D, I101A
VL: B1 VL
notes: as for B1
B18: toripalimab Fab L.Q95Y (Fab, V domains shown)
VH: B1 VH with A31D
VL: B1 VL with Q95Y
notes: as for B3
B19: toripalimab Fab L.S97Y (Fab, V domains shown)
VH: B1 VH with A31D
VL: B1 VL with S97Y
notes: as for B3
B20: toripalimab Fab L.L101W (Fab, V domains shown)
VH: B1 VH with A31D
VL: B1 VL with L101W
notes: as for B3
B21: toripalimab Fab H.F112A (Fab, V domains shown)
VH: B1 VH with A31D, F112A
VL: B1 VL
notes: as for B1
B22: toripalimab Fab H.D113Y (Fab, V domains shown)
VH: B1 VH with A31D, D113Y
VL: B1 VL
notes: as for B1
B23: toripalimab Fab H.D113A (Fab, V domains shown)
VH: B1 VH with A31D, D113A
VL: B1 VL
notes: as for B1
B24: toripalimab Fab H.E33Y (Fab, V domains shown)
VH: B1 VH with A31D, E33Y
VL: B1 VL
notes: as for B1
B25: toripalimab Fab H.Y111A (Fab, V domains shown)
VH: B1 VH with A31D, Y111A
VL: B1 VL
notes: as for B1
B26: toripalimab Fab H.I101Y (Fab, V domains shown)
VH: B1 VH with A31D, I101Y
VL: B1 VL
notes: as for B1
B27: toripalimab Fab L.Y37A (Fab, V domains shown)
VH: B1 VH with A31D
VL: B1 VL with Y37A
notes: as for B3
B28: toripalimab Fab H.T103Y (Fab, V domains shown)
VH: B1 VH with A31D, T103Y
VL: B1 VL
notes: as for B1
B29: toripalimab Fab H.H35Y (Fab, V domains shown)
VH: B1 VH with A31D, H35Y
VL: B1 VL
notes: as for B1

Our source for the Kd, koff and kon values is paper PMC10663500, “High-throughput analysis system of interaction kinetics for data-driven antibody design” (Scientific Reports, 2023).

Positions count from the first letter of the chain named. Where only a bound is given, the exact number is not on record here.

The first assay concerns the target T1, mouse programmed cell death protein 1 Fc fusion protein (mPD-1-Fc), mPD-1 C60S (aa 25-167) (Mus musculus, UniProt Q02242, stabilised).
T1 construct: not cleaved; source: Expi293F, purified (Protein A, SEC; dimeric fraction); not shown: Fc (human), C-terminal, kept
The assay is described as follows: SPR; Carterra LSA; Fab from the ammonium sulfate precipitate of the culture supernatant immobilised on a NiHC200M chip; hPD-1 (1-1024 nM) or mPD-1-Fc (4-1024 nM) as analyte, fourfold dilution series, no regeneration; HBS-EP pH 7.4, 25 °C; medians over the spots of a construct, KD = koff/kon. As to conditions: one partner purified. In outline:
(§1)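 Fabs, ammonium sulfate-precipitated from Brevibacillus supernatants and redissolved in HBS-EP, were captured in duplicate on a NiHC200M chip on a Carterra LSA at 25 °C. Fourfold series of human PD-1 (1–1024 nM) or mouse PD-1-Fc (4–1024 nM) were run without regeneration, with association for 10 min and dissociation for 5 min. Rates were fitted with the kdka model, choosing the better of slow- or fast-dissociation settings, and unconfirmed binders were given kon 10^3 […] and koff 10^−2 s^−1. The dissociation constant KD is koff/kon based on per-construct medians.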
A word on the Kd: it is the free concentration of one partner at which half of the binding sites on the other are occupied at equilibrium, for simple one-to-one binding. A higher Kd goes with weaker binding. As usually defined, the koff is the first-order rate constant of dissociation. High values mean a short-lived complex, low ones a long-lived complex. By kon is commonly meant a measure of how fast the partners come together. Read a low kon as slow association. Turning to B1, the Kd stood at 204 nM, the koff stood at 0.00913 s⁻¹ and the kon stood at 44700 M⁻¹ s⁻¹.

Another assay deals with T2, human programmed cell death protein 1 (hPD-1) C93S (aa 24-167) (Homo sapiens, UniProt Q15116, C93S).
T2 construct: made as a fusion with a TEV site and human Fc; the Fc was cut off with TEV protease; source: Expi293F, purified (Protein A, TEV cleavage of Fc, SEC; monomer fractions); not shown: Fc (human), C-terminal, cleaved
T2 sequence (Q15116 24-167 C93S): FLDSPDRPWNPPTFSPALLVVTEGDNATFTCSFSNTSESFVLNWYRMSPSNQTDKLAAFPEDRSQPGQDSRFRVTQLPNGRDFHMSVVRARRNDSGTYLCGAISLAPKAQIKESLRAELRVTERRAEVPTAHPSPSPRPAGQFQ
The description is as above. As to conditions: one partner purified. The essentials:
as §1
Turning to B2, the Kd is < 0.841 nM, the koff was < 1e-05 s⁻¹ and the kon is 11900 M⁻¹ s⁻¹.

In the case of B3, the Kd is 17.2 nM, the koff was found to be 0.000663 s⁻¹ and the kon came out at 38600 M⁻¹ s⁻¹.

B4 returned a Kd of 8.01 nM, a koff of 0.000297 s⁻¹ and a kon of 37000 M⁻¹ s⁻¹.

For the molecule B5, the Kd is < 2.43 nM, the koff was < 1e-05 s⁻¹ and the kon is 4120 M⁻¹ s⁻¹.

Molecule B6 showed a Kd of 60.6 nM, a koff of 0.00111 s⁻¹ and a kon of 18400 M⁻¹ s⁻¹.

On to B1, for which the Kd is < 0.861 nM, the koff was < 1e-05 s⁻¹ and the kon was determined as 11600 M⁻¹ s⁻¹.

As for B7, binding was characterised by a dissociation constant (Kd) of 48.6 nM, the off-rate constant (koff) was found to be 0.000235 s⁻¹ and the kon turned out to be 4840 M⁻¹ s⁻¹.

As for B8, the Kd was found to be 2470 nM, the koff came to 0.00804 s⁻¹ and the kon came out at 3250 M⁻¹ s⁻¹.

In the case of B9, the Kd was < 1.2 nM, the koff was < 1e-05 s⁻¹ and the kon was 8350 M⁻¹ s⁻¹.

B10 displayed a Kd of 88.4 nM, a koff of 0.000203 s⁻¹ and a kon of 2290 M⁻¹ s⁻¹.

Molecule B11 gave a Kd of 57.3 nM, a koff of 0.000589 s⁻¹ and a kon of 10300 M⁻¹ s⁻¹.

For the molecule B12, the Kd worked out at 107 nM, the koff is 0.00166 s⁻¹ and the kon came out at 15500 M⁻¹ s⁻¹.

With B13, the Kd is 200 nM, the koff stood at 0.00148 s⁻¹ and the kon stood at 7420 M⁻¹ s⁻¹.

For B14, the Kd was determined as 40.1 nM, the koff came out at 0.000844 s⁻¹ and the kon was 21100 M⁻¹ s⁻¹.

As to B15, the affinity, expressed as Kd, was 65.9 nM; the koff is 0.000404 s⁻¹; the kon came to 6130 M⁻¹ s⁻¹.

B16 showed a Kd of 372 nM, a koff of 0.00516 s⁻¹ and an on-rate (kon) of 13900 M⁻¹ s⁻¹.

B17 had a Kd of 107 nM, a koff of 0.000592 s⁻¹ and a kon of 5550 M⁻¹ s⁻¹.

Take B18: the dissociation constant Kd worked out at 55 nM, the koff was determined as 0.000734 s⁻¹ and the kon was found to be 13300 M⁻¹ s⁻¹.

B19 yielded a Kd of 63.3 nM, a koff of 0.000845 s⁻¹ and a kon of 13300 M⁻¹ s⁻¹.

The molecule B20 displayed a Kd of 237 nM, a koff of 0.0322 s⁻¹ and a kon of 136000 M⁻¹ s⁻¹.

In turn, B21 gave a Kd of 6.2 nM, a koff of 2.72e-05 s⁻¹ and a kon of 4390 M⁻¹ s⁻¹.

Consider B22, for which the Kd is < 1.6 nM, the koff was < 1e-05 s⁻¹ and the kon amounted to 6230 M⁻¹ s⁻¹.

With B23, the Kd was < 1.79 nM, the koff is < 1e-05 s⁻¹ and the kon was 5600 M⁻¹ s⁻¹.

B24 yielded a Kd of 430 nM, an off-rate constant (koff) of 0.00629 s⁻¹ and a kon of 14600 M⁻¹ s⁻¹.

B25 registered a Kd of 1610 nM, a koff of 0.0601 s⁻¹ and a kon of 37200 M⁻¹ s⁻¹.

Turning to B26, the affinity, expressed as Kd, was 54.5 nM; the koff turned out to be 0.000227 s⁻¹; the kon came to 4170 M⁻¹ s⁻¹.

With B27, the affinity, expressed as Kd, was 237 nM; the koff came out at 0.00432 s⁻¹; the kon was determined as 18300 M⁻¹ s⁻¹.

Regarding B28, the Kd is < 2.91 nM, the koff is < 1e-05 s⁻¹ and the kon stood at 3430 M⁻¹ s⁻¹.

In turn, B29 displayed a Kd of 294 nM, a koff of 0.00276 s⁻¹ and a kon of 9390 M⁻¹ s⁻¹.
